Data on 96 variants can be found in the supplement of paper PMC10567573.

First the molecules themselves.
B1: KCNAB2 (parent)
chain: SSIIHEIDSILGNKPYSKKDYRS
B2: INTS3 (parent)
chain: FHPIKETVVEEPVDITPYLDQLDE
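Note: lentivirally expressed fusions sorted by FACS into six bins by GFP to DsRed ratio, PSI derived from sequencing read proportions per bin multiplied by bin number.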

In one data set the parent is B1. Description: protein stability index of a GFP-peptide fusion (GPS, HEK-293T) (PSI 1-6); higher = more stable. As to conditions: c terminus: native.
Take FSIIHEIDSILGNKPYSKKDYRS [S1F]: the protein stability index was determined as 2.06.
Regarding MSIIHEIDSILGNKPYSKKDYRS [S1M], the protein stability index turned out to be 1.8.
Regarding CSIIHEIDSILGNKPYSKKDYRS [S1C], the protein stability index is 2.47.
As for VSIIHEIDSILGNKPYSKKDYRS [S1V], the protein stability index is 2.34.
As for ASIIHEIDSILGNKPYSKKDYRS [S1A], the protein stability index was 2.43.
In the case of RSIIHEIDSILGNKPYSKKDYRS [S1R], the protein stability index came to 2.78.
For YSIIHEIDSILGNKPYSKKDYRS [S1Y], the protein stability index was determined as 1.59.
In the case of KSIIHEIDSILGNKPYSKKDYRS [S1K], the protein stability index is 3.55.
The same measure, in the same setting: as for HSIIHEIDSILGNKPYSKKDYRS [S1H], the figure is 2.46; as for PSIIHEIDSILGNKPYSKKDYRS [S1P], 3.28; as for QSIIHEIDSILGNKPYSKKDYRS [S1Q], 2.94.
With GSIIHEIDSILGNKPYSKKDYRS [S1G], the protein stability index came out at 3.04.
For LSIIHEIDSILGNKPYSKKDYRS [S1L], the protein stability index turned out to be 2.13.
Consider ISIIHEIDSILGNKPYSKKDYRS [S1I], for which the protein stability index was found to be 2.67.
The same measure, in the same setting: as for DSIIHEIDSILGNKPYSKKDYRS [S1D], the figure is 3.67.
For the variant NSIIHEIDSILGNKPYSKKDYRS [S1N], the protein stability index is 3.97.
For SSIIHEEDSILGNKPYSKKDYRS [I7E], the protein stability index amounted to 4.51.
For the variant SSIIHEGDSILGNKPYSKKDYRS [I7G], the protein stability index is 4.45.
The same measure, in the same setting: as for SSIIHESDSILGNKPYSKKDYRS [I7S], the figure is 4.38.
In the case of SSIIHEQDSILGNKPYSKKDYRS [I7Q], the protein stability index amounted to 4.42.
As for SSIIHEKDSILGNKPYSKKDYRS [I7K], the protein stability index came to 3.45.
For SSIIHELDSILGNKPYSKKDYRS [I7L], the protein stability index is 2.86.
For SSIIHERDSILGNKPYSKKDYRS [I7R], the protein stability index stood at 3.86.
Same read-out and setting: as for SSIIHEDDSILGNKPYSKKDYRS [I7D], the figure is 4.4; as for SSIIHEPDSILGNKPYSKKDYRS [I7P], 4.47.
With SSIIHENDSILGNKPYSKKDYRS [I7N], the protein stability index came out at 4.63.
In the case of SSIIHEFDSILGNKPYSKKDYRS [I7F], the protein stability index came to 2.71.
For SSIIHEMDSILGNKPYSKKDYRS [I7M], the protein stability index came to 2.75.
As to SSIIHEHDSILGNKPYSKKDYRS [I7H], the protein stability index worked out at 3.97.
SSIIHECDSILGNKPYSKKDYRS [I7C]: the protein stability index was 4.15.
Same read-out and setting: as for SSIIHEADSILGNKPYSKKDYRS [I7A], the figure is 4.65.

Variants of B2 are the subject of the next data set. The description is as above. Conditions: c terminus: a fixed tail appended.
On to FHPIKETVVEEPVDITPYLDQLDD [E24D], for which the protein stability index came out at 3.75.
Turning to FHPIKETVVEEPVDITPYLDQLDP [E24P], the protein stability index was found to be 2.63.
In the case of FHPIKETVVEEPVDITPYLDQLDK [E24K], the protein stability index was found to be 2.42.
For the variant FHPIKETVVEEPVDITPYLDQLDY [E24Y], the protein stability index was 2.47.
Consider FHPIKETVVEEPVDITPYLDQLDA [E24A], for which the protein stability index was determined as 2.58.
Same read-out and setting: as for FHPIKETVVEEPVDITPYLDQLDL [E24L], the figure is 2.85.
On to FHPIKETVVEEPVDITPYLDQLDM [E24M], for which the protein stability index came to 2.83.
In the case of FHPIKETVVEEPVDITPYLDQLDR [E24R], the protein stability index was 2.33.
For the variant FHPIKETVVEEPVDITPYLDQLDW [E24W], the protein stability index was found to be 1.84.
Still for that read-out and setting: to FHPIKETVVEEPVDITPYLDQLDS [E24S] belongs 2.9; to FHPIKETVVEEPVDITPYLDQLDT [E24T], 3.09; to FHPIKETVVEEPVDITPYLDQLDN [E24N], 3.17.
For FHPIKETVVEEPVDITPYLDQLDC [E24C], the protein stability index was determined as 2.77.
Same read-out and setting: as for FHPIKETVVEEPVDITPYLDQLDH [E24H], the figure is 2.66; as for FHPIKETVVEEPVDITPYLDQLDV [E24V], 2.99; as for FHPIKETVVEEPVDITPYLDQLDG [E24G], 2.73.
For the variant FHPIKETVVEEPVDITPYLDQLDI [E24I], the protein stability index was determined as 2.44.
As to FHPIKETVVEEPVDITPYLDQLDF [E24F], the protein stability index was 1.93.
Consider FHPIKETVVEEPVDITPYLDQLDQ [E24Q], for which the protein stability index was 2.7.
With FHPIKETVVEEPVDITPYLDPLDE [Q21P], the protein stability index is 3.15.
For FHPIKETVVEEPVDITPYLDRLDE [Q21R], the protein stability index stood at 2.71.
With FHPIKETVVEEPVDITPYLDTLDE [Q21T], the protein stability index was 3.19.
In the case of FHPIKETVVEEPVDITPYLDVLDE [Q21V], the protein stability index amounted to 4.05.
In the case of FHPIKETVVEEPVDITPYLDSLDE [Q21S], the protein stability index was determined as 2.82.
For the variant FHPIKETVVEEPVDITPYLDNLDE [Q21N], the protein stability index turned out to be 3.06.
The same measure, in the same setting: as for FHPIKETVVEEPVDITPYLDWLDE [Q21W], the figure is 2.26; as for FHPIKETVVEEPVDITPYLDYLDE [Q21Y], 2.5.
On to FHPIKETVVEEPVDITPYLDQRDE [L22R], for which the protein stability index stood at 3.71.
FHPIKETVVEEPVDITPYLDQHDE [L22H]: the protein stability index was determined as 3.5.
With FHPIKETVVEEPVDITPYLDQWDE [L22W], the protein stability index stood at 2.73.
Take FHPIKETVVEEPVDITPYLDQTDE [L22T]: the protein stability index was 3.38.
As to FHPIKETVVEEPVDITPYLDQVDE [L22V], the protein stability index was 3.41.
For the variant FHPIKETVVEEPVDITPYLDQYDE [L22Y], the protein stability index came to 3.16.
Consider FHPIKETVVEEPVDITPYLDQADE [L22A], for which the protein stability index was 3.9.
Regarding FHPIKETVVEEPVDITPYLDQFDE [L22F], the protein stability index stood at 3.03.
The same measure, in the same setting: to FHPIKETVVEEPVDITPYLDQQDE [L22Q] belongs 4.11; to FHPIKETVVEEPVDITPYLDQSDE [L22S], 3.13.
With FHPIKETVVEEPVDITPYLDQDDE [L22D], the protein stability index amounted to 3.62.
As for FHPIKETVVEEPVDITPYLDQGDE [L22G], the protein stability index was 3.41.
As for FHPIKETVVEEPVDITPYLDQEDE [L22E], the protein stability index worked out at 3.68.
In the case of FHPIKETVVEEPVDITPYLDQPDE [L22P], the protein stability index came to 3.61.
Regarding FHPIKETVVEEPVDITPYLDQNDE [L22N], the protein stability index worked out at 3.85.
Regarding FHPIKETVVEEPVDITPYLDQCDE [L22C], the protein stability index worked out at 3.82.
For the variant FHPIKETVVEEPVDITPYLDQKDE [L22K], the protein stability index stood at 3.7.
Consider FHPIKETVVEEPVDITPYLDQMDE [L22M], for which the protein stability index was found to be 2.57.
Still for that read-out and setting: as for FHPIKETVVEEPVDITPYLDQIDE [L22I], the figure is 3.83; as for FHPIKETVVEEPVDITPYLDQLPE [D23P], 3.02.
Still for that read-out and setting: to FHPIKETVVEEPVDITPYLDQLVE [D23V] belongs 2.3.
Regarding FHPIKETVVEEPVDITPYLDQLYE [D23Y], the protein stability index is 2.18.
Consider FHPIKETVVEEPVDITPYLDQLSE [D23S], for which the protein stability index was 2.68.
As to FHPIKETVVEEPVDITPYLDQLTE [D23T], the protein stability index was 3.08.
With FHPIKETVVEEPVDITPYLDQLME [D23M], the protein stability index came to 2.22.
FHPIKETVVEEPVDITPYLDQLKE [D23K]: the protein stability index was 2.39.
On to FHPIKETVVEEPVDITPYLDQLHE [D23H], for which the protein stability index was determined as 2.66.
On to FHPIKETVVEEPVDITPYLDQLWE [D23W], for which the protein stability index came out at 1.8.
Same read-out and setting: as for FHPIKETVVEEPVDITPYLDQLRE [D23R], the figure is 2.63.
The same measure, in the same setting: as for FHPIKETVVEEPVDITPYLDQLNE [D23N], the figure is 2.8; as for FHPIKETVVEEPVDITPYLDQLQE [D23Q], 3.02.
Regarding FHPIKETVVEEPVDITPYLDQLAE [D23A], the protein stability index is 2.35.
Still for that read-out and setting: as for FHPIKETVVEEPVDITPYLDQLIE [D23I], the figure is 2.06; as for FHPIKETVVEEPVDITPYLDQLFE [D23F], 2.28; as for FHPIKETVVEEPVDITPYLDQLLE [D23L], 2.21.
Take FHPIKETVVEEPVDITPYLDQLCE [D23C]: the protein stability index was found to be 2.48.
Same read-out and setting: to FHPIKETVVEEPVDITPYLDQLEE [D23E] belongs 3.29; to FHPIKETVVEEPVDITPYLDQLGE [D23G], 2.59.
